Experimental findings from patent publication US20260217797A1 are described below.

Assay [1] has as its target SARS-CoV-2 B.1.1.7 N501Y (Alpha) RBD (SARS-CoV-2) (UniProt P0DTC2). The assay is described as follows: Octet BLI single point, monovalent.
Assay [2] addresses SARS-CoV-2 L452R RBD (Epsilon) (SARS-CoV-2) (UniProt P0DTC2). The assay is described as follows: Octet BLI single point, monovalent.

For the substance RGN10987 (antibody), the Kd (in general, the free concentration of one partner at which half of the binding sites on the other are occupied at equilibrium, for simple one-to-one binding) in assay [1] was found to be 0.0151 µM; in assay [2], 0.0174 µM.
As to RGN10933 (antibody), the results for the Kd in assay [1] and in assay [2] were 0.00657 µM and 0.00952 µM, respectively.
